In patent US20260258084A1, “New Peptides as Selective IL-23 Receptor Antagonists” (Sanofi, priority 2022, published 2026):
Starred links: 1 amine or outer side, 2 acyl side, 3 side chain; linkers in the order of their positions; H or OH if unused. Positions of bridges follow the written chain, without caps; N, C: chain ends. Non-standard residues stand in square brackets, D forms with d. Yde = (2S)-2-amino-3-[4-[2-(dimethylamino)ethoxy]phenyl]propanoic acid, CN(C)CCOc1ccc(C[C@H](N[*:1])C(=O)[*:2])cc1; NdmK = (2S)-6-amino-2-(dimethylamino)hexanoic acid, CN(C)[C@@H](CCCCN[*:3])C(=O)[*:2]; Phe(4-OMe) = COc1ccc(C[C@H](N[*:1])C(=O)[*:2])cc1; Trp(7-Me) = Cc1cccc2c(C[C@H](N)C(=O)O)c[nH]c12; αMeLys(Me2) = CN(C)CCCC[C@](C)(N)C(=O)O; 2Nal = N[C@@H](Cc1ccc2ccccc2c1)C(=O)O; εLys = N[C@@H](CCCCN[*:1])C(=O)[*:2]; AEF = NCCOc1ccc(C[C@H](N)C(=O)O)cc1; 3Pal = N[C@@H](Cc1cccnc1)C(=O)O; Dad = desamino-aspartamic acid; Lys(Me) = CNCCCC[C@H](N)C(=O)O; αMeL = CC(C)C[C@](C)(N)C(=O)O; Nmapt = not defined here; Thp = NC1(C(=O)O)CCOCC1; Aib = CC(C)(N)C(=O)O; Ahx = NCCCCCC(=O)O; Ava = NCCCCC(=O)O; Sar = CNCC(=O)O

T1: IL-23 receptor on the surface of HEK-Blue IL-23 cells (UniProt Q5VWK5 24-629, limits assumed)
T1 sequence (looked up): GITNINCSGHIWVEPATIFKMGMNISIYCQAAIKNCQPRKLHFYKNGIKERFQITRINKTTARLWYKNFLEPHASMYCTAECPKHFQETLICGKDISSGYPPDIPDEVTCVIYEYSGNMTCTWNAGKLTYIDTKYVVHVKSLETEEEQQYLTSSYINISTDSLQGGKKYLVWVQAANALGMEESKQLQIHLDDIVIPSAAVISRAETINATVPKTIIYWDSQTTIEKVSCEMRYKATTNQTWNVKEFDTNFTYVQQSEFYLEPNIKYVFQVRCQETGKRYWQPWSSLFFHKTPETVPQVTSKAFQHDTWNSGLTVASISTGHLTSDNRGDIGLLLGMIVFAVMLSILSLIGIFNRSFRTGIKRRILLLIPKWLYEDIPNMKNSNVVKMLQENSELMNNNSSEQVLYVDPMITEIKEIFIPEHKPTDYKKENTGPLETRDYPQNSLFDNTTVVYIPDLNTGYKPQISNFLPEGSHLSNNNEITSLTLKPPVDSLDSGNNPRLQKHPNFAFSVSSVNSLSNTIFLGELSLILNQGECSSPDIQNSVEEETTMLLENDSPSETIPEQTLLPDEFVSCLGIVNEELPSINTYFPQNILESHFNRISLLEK

B1: Compound of SEQ ID NO: 57 (peptide)
peptide: [Ava]CNTWQC[Yde][2Nal][Aib]ENNI-NH2
modifications: lactam N-11; disulfide 2-7
SMILES: CC[C@H](C)[C@H](NC(=O)[C@H](CC(N)=O)NC(=O)[C@H](CC(N)=O)NC(=O)[C@@H]1CCC(=O)NCCCCC(=O)N[C@H]2CSSC[C@H](NC(=O)[C@H](CCC(N)=O)NC(=O)[C@H](Cc3c[nH]c4ccccc34)NC(=O)[C@H]([C@@H](C)O)NC(=O)[C@H](CC(N)=O)NC2=O)C(=O)N[C@@H](Cc2ccc(OCCN(C)C)cc2)C(=O)N[C@@H](Cc2ccc3ccccc3c2)C(=O)NC(C)(C)C(=O)N1)C(N)=O
notes: §1 lactam bridge; @2 disulfide bridge
B2: Compound of SEQ ID NO: 20 (peptide)
peptide: [Ava]CNT[Trp(7-Me)]K(Ac)C[Yde][2Nal][Aib]ENH-NH2
modifications: lactam N-11; disulfide 2-7
SMILES: CC(=O)NCCCC[C@@H]1NC(=O)[C@H](Cc2c[nH]c3c(C)cccc23)NC(=O)[C@H]([C@@H](C)O)NC(=O)[C@H](CC(N)=O)NC(=O)[C@@H]2CSSC[C@H](NC1=O)C(=O)N[C@@H](Cc1ccc(OCCN(C)C)cc1)C(=O)N[C@@H](Cc1ccc3ccccc3c1)C(=O)NC(C)(C)C(=O)N[C@H](C(=O)N[C@@H](CC(N)=O)C(=O)N[C@@H](Cc1c[nH]cn1)C(N)=O)CCC(=O)NCCCCC(=O)N2
B3: Compound of SEQ ID NO: 33 (peptide)
peptide: [Ava]C[εLys](Ac)WQC[Yde][2Nal][Thp]EA[dL]-NH2
modifications: lactam N-10; disulfide 2-6; also: Cys2 carboxyl bonded to Lys3 epsilon-NH2 (isopeptide), Lys3 alpha-N acetylated
B4: Compound of SEQ ID NO: 30 (peptide)
peptide: [Ava]C[εLys](Ac)WQC[Yde][2Nal][Thp]ENG-NH2
modifications: lactam N-10; disulfide 2-6; also: Cys2 carboxyl bonded to Lys3 epsilon-NH2 (isopeptide), Lys3 alpha-N acetylated
B5: Compound of SEQ ID NO: 27 (peptide)
peptide: [Ava]CNTWQC[Yde][2Nal][αMeL]ENN-NH2
modifications: lactam N-11; disulfide 2-7
SMILES: CC(C)C[C@]1(C)NC(=O)[C@H](Cc2ccc3ccccc3c2)NC(=O)[C@H](Cc2ccc(OCCN(C)C)cc2)NC(=O)[C@@H]2CSSC[C@H](NC(=O)CCCCNC(=O)CC[C@@H](C(=O)N[C@@H](CC(N)=O)C(=O)N[C@@H](CC(N)=O)C(N)=O)NC1=O)C(=O)N[C@@H](CC(N)=O)C(=O)N[C@@H]([C@@H](C)O)C(=O)N[C@@H](Cc1c[nH]c3ccccc13)C(=O)N[C@@H](CCC(N)=O)C(=O)N2
B6: Compound of SEQ ID NO: 31 (peptide)
peptide: [Ava]C[εLys](Ac)WQC[Yde][2Nal][αMeL]ENG-NH2
modifications: lactam N-10; disulfide 2-6; also: Cys2 carboxyl bonded to Lys3 epsilon-NH2 (isopeptide), Lys3 alpha-N acetylated
B7: Compound of SEQ ID NO: 32 (peptide)
peptide: [Ava]C[εLys](Ac)WQC[Yde][2Nal][Aib]EAG-NH2
modifications: lactam N-10; disulfide 2-6; also: Cys2 carboxyl bonded to Lys3 epsilon-NH2 (isopeptide), Lys3 alpha-N acetylated
B8: Compound of SEQ ID NO: 21 (peptide)
peptide: [Ava]CNT[Trp(7-Me)]K(Ac)C[Yde][2Nal][Thp]ENH-NH2
modifications: lactam N-11; disulfide 2-7
SMILES: CC(=O)NCCCC[C@@H]1NC(=O)[C@H](Cc2c[nH]c3c(C)cccc23)NC(=O)[C@H]([C@@H](C)O)NC(=O)[C@H](CC(N)=O)NC(=O)[C@@H]2CSSC[C@H](NC1=O)C(=O)N[C@@H](Cc1ccc(OCCN(C)C)cc1)C(=O)N[C@@H](Cc1ccc3ccccc3c1)C(=O)NC1(CCOCC1)C(=O)N[C@H](C(=O)N[C@@H](CC(N)=O)C(=O)N[C@@H](Cc1c[nH]cn1)C(N)=O)CCC(=O)NCCCCC(=O)N2
B9: Compound of SEQ ID NO: 29 (peptide)
peptide: [Ava]C[εLys](Ac)WQC[Yde][2Nal][Aib]ENG-NH2
modifications: lactam N-10; disulfide 2-6; also: Cys2 carboxyl bonded to Lys3 epsilon-NH2 (isopeptide), Lys3 alpha-N acetylated
B10: Compound of SEQ ID NO: 34 (peptide)
peptide: [Nmapt]CKWQC[AEF][2Nal][Thp]EA[dL]-NH2
modifications: lactam N-10; disulfide 2-6; not fully specified (residue 3); printed as Nmapt(§1)-C(§3)(@2)-K[aAc](@3)-W-Q-C(@2)-Yae-Nal-Thp-E(§1)-A-(D-Leu)-NH2; reading uncertain; also: Cys2 carboxyl joined to Lys3 epsilon-NH2 (isopeptide bond)
B11: Compound of SEQ ID NO: 24 (peptide)
peptide: [Ava]CNT[Trp(7-Me)]LC[Yde][2Nal][Thp]EN[3Pal][Sar]-NH2
modifications: lactam N-11; disulfide 2-7
SMILES: Cc1cccc2c(C[C@@H]3NC(=O)[C@H]([C@@H](C)O)NC(=O)[C@H](CC(N)=O)NC(=O)[C@@H]4CSSC[C@H](NC(=O)[C@H](CC(C)C)NC3=O)C(=O)N[C@@H](Cc3ccc(OCCN(C)C)cc3)C(=O)N[C@@H](Cc3ccc5ccccc5c3)C(=O)NC3(CCOCC3)C(=O)N[C@H](C(=O)N[C@@H](CC(N)=O)C(=O)N[C@@H](Cc3cccnc3)C(=O)N(C)CC(N)=O)CCC(=O)NCCCCC(=O)N4)c[nH]c12
B12: Compound of SEQ ID NO: 22 (peptide)
peptide: [Ava]CNT[Trp(7-Me)]K(Ac)C[Yde][2Nal][αMeL]ENH-NH2
modifications: lactam N-11; disulfide 2-7
SMILES: CC(=O)NCCCC[C@@H]1NC(=O)[C@H](Cc2c[nH]c3c(C)cccc23)NC(=O)[C@H]([C@@H](C)O)NC(=O)[C@H](CC(N)=O)NC(=O)[C@@H]2CSSC[C@H](NC1=O)C(=O)N[C@@H](Cc1ccc(OCCN(C)C)cc1)C(=O)N[C@@H](Cc1ccc3ccccc3c1)C(=O)N[C@@](C)(CC(C)C)C(=O)N[C@H](C(=O)N[C@@H](CC(N)=O)C(=O)N[C@@H](Cc1c[nH]cn1)C(N)=O)CCC(=O)NCCCCC(=O)N2
B13: Compound of SEQ ID NO: 26 (peptide)
peptide: [Ava]CNTWQC[Yde][2Nal][Thp]ENN-NH2
modifications: lactam N-11; disulfide 2-7
SMILES: C[C@@H](O)[C@@H]1NC(=O)[C@H](CC(N)=O)NC(=O)[C@@H]2CSSC[C@H](NC(=O)[C@H](CCC(N)=O)NC(=O)[C@H](Cc3c[nH]c4ccccc34)NC1=O)C(=O)N[C@@H](Cc1ccc(OCCN(C)C)cc1)C(=O)N[C@@H](Cc1ccc3ccccc3c1)C(=O)NC1(CCOCC1)C(=O)N[C@H](C(=O)N[C@@H](CC(N)=O)C(=O)N[C@@H](CC(N)=O)C(N)=O)CCC(=O)NCCCCC(=O)N2
B14: Compound of SEQ ID NO: 3 (peptide)
peptide: [Ahx]CNTWQC[Phe(4-OMe)][2Nal][Aib]DNN-NH2
modifications: lactam N-11; disulfide 2-7
SMILES: COc1ccc(C[C@@H]2NC(=O)[C@@H]3CSSC[C@H](NC(=O)CCCCCNC(=O)C[C@@H](C(=O)N[C@@H](CC(N)=O)C(=O)N[C@@H](CC(N)=O)C(N)=O)NC(=O)C(C)(C)NC(=O)[C@H](Cc4ccc5ccccc5c4)NC2=O)C(=O)N[C@@H](CC(N)=O)C(=O)N[C@@H]([C@@H](C)O)C(=O)N[C@@H](Cc2c[nH]c4ccccc24)C(=O)N[C@@H](CCC(N)=O)C(=O)N3)cc1

Target: T1, IL-23 receptor on the surface of …
Assay: cell-based or functional assay

Binder	pSTAT3 (nM)
[Dad]CNTWQC[Yde][2Nal][Aib][Lys(Me)]NN-NH2 (lactam N-11; disulfide 2-7) [Compound of SEQ ID NO: 25]	39.2 nM
[Ava]CNTWK(Ac)C[Yde][2Nal][Aib]ENNI-NH2 (lactam N-11; disulfide 2-7; also: places amidation at position 13, §1 lactam bridge; @2 disulfide bridge) [Compound of SEQ ID NO: 38]	11.9 nM
B1	5.5 nM
[Ava]CNTWK(Ac)C[Yde][2Nal][Aib]EN[3Pal]I-NH2 (lactam N-11; disulfide 2-7; also: places amidation at position 13) [Compound of SEQ ID NO: 37]	2 nM
[Dad]CNT[Trp(7-Me)]K(Ac)C[Yde][2Nal][αMeL]KNH-NH2 (lactam N-11; disulfide 2-7) [Compound of SEQ ID NO: 23]	3.32 nM
B2	3.12 nM
[Ava]C[NdmK]WK(Ac)C[Yde][2Nal][αMeLys(Me2)]EN[3Pal][Sar]-NH2 (lactam N-10; disulfide 2-6) [Compound of SEQ ID NO: 36]	13.9 nM
B3	53.8 nM
B4	5.41 nM
B5	1.71 nM
B6	5.23 nM
B7	20.5 nM
B8	2.67 nM
B9	8.16 nM
B10	13.3 nM
B11	0.59 nM
B12	1.37 nM
B13	3.37 nM
B14	17.2 nM
